T1: synthetic peptide Sub-domain 2 Cys 4&5 ΔS (human, not fully specified; biotin on the added C-terminal lysine)
T1 construct: also called sub-domain 2 cys4&5ΔS mutant
T1 peptide: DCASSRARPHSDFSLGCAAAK


Legend:
[1] = target: phage expressed hFn14 mutant D62A (human, UniProt Q9NP84 28-77); assay: phage ELISA (Method 2): antibody coated on the plate, 10-fold dilutions of phage displaying hFn14 D62A; biotin anti-M13 antibody, streptavidin-HRP, TMB, OD 450 nm; x axis = dilution of phage
Description: (§1) ELISAs showing the reactivity of mutant hFn14 phage constructs with the anti-Fn14 monoclonal antibodies CRCBT-06-001, CRCBT-06-002, CRCBT-06-004 compared to ITEM-1 and ITEM-4. Binding was detected using Biotin-conjugated anti-M13-phage monoclonal antibody followed by HRP-conjugated Streptavidin and TMB substrate. Optical density at 450 nm was quantified using a Spectramax spectrophotometer. Error bars for each dilution represent the standard deviation of duplicate assays. FIG. 28A L46A, FIG. 28B D51A and FIG. 28C D62A. In all cases error bars represent the standard deviation. X axis=dilution of phage. Methods according to Epitope mapping using phage expressed Fn14—Method 2.
(§2) The wells of Maxisorp immunoplates (Nunc) were coated overnight at 4° C. with the target monoclonal antibodies or recombinant Tweak-Fc at a concentration of 1.5 μg/ml in PBS. mAb 5G8 was used as a negative control for ELISA plates coated with tested antibodies. […] 10-fold serial dilutions of phage were made using PBS solution and phage dilutions were added to the coated, blocked ELISA plates for 1 hour, shaking at room temperature. […]
(§3) Method A: HRP-conjugated anti-M13-phage antibody (GE Healthcare) at a 1/5000 dilution in PBS was then added to the wells of the ELISA plates for 1 hour, shaking at room temperature. […] Optical density at 450 nm was quantified using a Spectramax absorbance spectrophotometer.

[2] = target: T2, His tagged hFn14 extracellular region mutant R56A (human, UniProt Q9NP84 28-77); assay: ELISA with purified His-tagged hFn14 R56A; x axis 'Log (c)' without unit, µg/ml by the legend
T2 construct: not shown: (His)6 tag
T2 sequence (Q9NP84 28-77 R56A): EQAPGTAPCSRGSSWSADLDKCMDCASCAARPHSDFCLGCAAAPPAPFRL

[3] = target: T1, synthetic peptide Sub-domain 2 Cys 4&5 …; assay: peptide ELISA: biotinylated synthetic peptide on neutravidin plate, antibody titrated (legend: 1-0.0001 µg/ml; axis 'Log (c)'), anti-mouse HRP, TMB, OD 450 nm
[4] = target: phage expressed hFn14 mutant L46A (human, UniProt Q9NP84 28-77); assay: phage ELISA (Method 2): antibody coated on the plate, 10-fold dilutions of phage displaying hFn14 L46A; biotin anti-M13 antibody, streptavidin-HRP, TMB, OD 450 nm; x axis = dilution of phage
Sequence of phage expressed hFn14 mutant L46A (Q9NP84 28-77 L46A): as the sequence (Q9NP84 28-77 R56A) above, with L19A, A29R counted along it
Description: as §1, §2, §3

[5] = target: phage-displayed hFn14 extracellular domain mutant D62E (human, UniProt Q9NP84 28-77); assay: phage ELISA, antibody on plate, 10-fold phage dilutions
Sequence of phage-displayed hFn14 extracellular domain mutant D62E (Q9NP84 28-77 D62E): as the sequence (Q9NP84 28-77 R56A) above, with A29R, D35E counted along it
Description: (§4) ELISAs showing the reactivity of the repertoire of hFn14 phage constructs with the anti-Fn14 monoclonal antibodies CRCBT-06-001, CRCBT-06-002, CRCBT-06-003 and CRCBT-06-004. Binding was detected using HRP-conjugated anti-M13-phage polyclonal IgG and TMB substrate. Optical density at 450 nm was quantified using a Spectramax spectrophotometer. Error bars for each dilution represent the standard deviation of duplicate assays. In this figure, reference to “FN14 Ectodomain” is a reference to the extracellular domain of hFn14. Methods according to Epitope mapping using phage expressed Fn14—Method 1.
(§5) The wells of Maxisorp immunoplates (Nunc) were coated overnight at 4° C. with the target monoclonal antibodies or recombinant Tweak-Fc at a concentration of 2 μg/mL in PBS. MAb 5G8 was used as a negative control for ELISA plates coated with tested antibodies. Recombinant Fc alone was used as a negative control for ELISA plates coated with recombinant Tweak-Fc. […] 10-fold serial dilutions of phage were made using 5% skim milk/PBS solution in 2 ml-well microtiter plates and phage dilutions were added to the coated, blocked ELISA plates for 1 hr, with vigorous shaking at room temperature. Phage were subsequently removed from the wells and the ELISA plates were washed 4× with PBS/0.05% Tween 20. HRP-conjugated anti-M13-phage polyclonal IgG diluted in PBS was then added to the wells of the ELISA plates for 1 hr, with vigorous shaking at room temperature. The antibody solution was then removed from the wells and the ELISA plates were washed 5× with PBS/0.05% Tween 20. ELISAs were developed using TMB substrate and the reaction was stopped using 2 M H₂SO₄ solution. Optical density at 450 nm was quantified using a Spectramax absorbance spectrophotometer.

[6] = target: phage-displayed hFn14 extracellular domain mutant D45A (human, UniProt Q9NP84 28-77); assay: as above
Sequence of phage-displayed hFn14 extracellular domain mutant D45A (Q9NP84 28-77 D45A): as the sequence (Q9NP84 28-77 R56A) above, with D18A, A29R counted along it
Description: as §4, §5

[7] = target: phage-displayed hFn14 extracellular domain mutant M50A (human, UniProt Q9NP84 28-77); assay: as above
Sequence of phage-displayed hFn14 extracellular domain mutant M50A (Q9NP84 28-77 M50A): as the sequence (Q9NP84 28-77 R56A) above, with M23A, A29R counted along it
Description: as §4, §5

[8] = target: phage-displayed hFn14 extracellular domain mutant K48A (human, UniProt Q9NP84 28-77); assay: as above
Sequence of phage-displayed hFn14 extracellular domain mutant K48A (Q9NP84 28-77 K48A): as the sequence (Q9NP84 28-77 R56A) above, with K21A, A29R counted along it
Description: as §4, §5

binding result [1]	binding result [2]	binding result [3]	binding result [4]	binding result [5]	binding result [6]	binding result [7]	binding result [8]	Binder
binds	binds	binds	binds	binds	binds	binds	binds	CRCBT-06-002 (antibody, IgG1, V domains shown) VH: EVKLQQSGGGLVQPGGSMKLSCVASGFTFSYYWMNWVRQSPEQGLEWIAEIRLQSNDYPTHYAESVKGRFTISRDDSKNSVYLQMNNLRPEDTGIYYCACRYADYFDHWGQGTTLTVSS VL: DTVLTQSPASLVVSLGQRATISCRASQSVSTSDYSYIHWYQQKPGQPPKFLIKYASNRDSGVPARFSGSGSGTDFTLNIHPVEEDDTAIYYCQHSWEIPPTFGAGTKLELQR
binds	binds	binds	binds	binds	binds	binds	binds	CRCBT-06-001 (antibody, IgG2b, V domains shown) VH: QVQLQQSGGGLVQPGGSMKLSCIASGFTFSSYWMSWVRQSPEKGLEWVAEIRSKSDNYATHYAESVKGKFTISRDDSKSRFFLQMNNLRAEDTGIYYCSSTYADYFHYWGQGTDLTVSS VL: DIVMTQTPASLAVSLGQRATISCRASQSVSTSTYSYMHWYQQKPGQPPKLLIKYASSLESGVPARFSGSGSGTDFTLNIHPVEEDDTATYYCQHSWEIPYTFGGGTKLEIKR
